From PMC10113190 (2023)

B1: Rh5_(unproc), full-length PfRh5 (residues 26 to 526) (natural protein)
chain: ENAIKKTKNQENNLTLLPIKSTEEEKDDIKNGKDIKKEIDNDKENIKTNNAKDHSTYIKSYLNTNVNDGLKYLFIPSHNSFIKKYSVFNQINDGMLLNEKNDVKNNEDYKNVDYKNVNFLQYHFKELSNYNIANSIDILQEKEGHLDFVIIPHYTFLDYYKHLSYNSIYHKSSTYGKCIAVDAFIKKINEAYDKVKSKCNDIKNDLIATIKKLEHPYDINNKNDDSYRYDISEEIDDKSEETDDETEEVEDSIQDTDSNHAPSNKKKNDLMNRAFKKMMDEYNTKKKKLIKCIKNHENDFNKICMDMKNYGTNLFEQLSCYNNNFCNTNGIRYHYDEYIHKLILSVKSKNLNKDLSDMTNILQQSELLLTNLNKKMGSYIYIDTIKFIHKEMKHIFNRIEYHTKIINDKTKIIQDKIKLNIWRTFQKDELLKRILDMSNEYSLFITSDHLRQMLYNTFYSKEKHLNNIFHHLIYVLQMKFNDVPIKMEYFQTYKKNKPLTQ
B2: Rh5_(proc), processed form of PfRh5 lacking the N-terminal domain (residues 145-526) (domain or fragment)
chain: LQYHFKELSNYNIANSIDILQEKEGHLDFVIIPHYTFLDYYKHLSYNSIYHKSSTYGKCIAVDAFIKKINEAYDKVKSKCNDIKNDLIATIKKLEHPYDINNKNDDSYRYDISEEIDDKSEETDDETEEVEDSIQDTDSNHAPSNKKKNDLMNRAFKKMMDEYNTKKKKLIKCIKNHENDFNKICMDMKNYGTNLFEQLSCYNNNFCNTNGIRYHYDEYIHKLILSVKSKNLNKDLSDMTNILQQSELLLTNLNKKMGSYIYIDTIKFIHKEMKHIFNRIEYHTKIINDKTKIIQDKIKLNIWRTFQKDELLKRILDMSNEYSLFITSDHLRQMLYNTFYSKEKHLNNIFHHLIYVLQMKFNDVPIKMEYFQTYKKNKPLTQ

Molecular target: Biotinylated CyRPA (residues 29 to 362) with a C-terminal Avitag (P. falciparum, UniProt Q8IFM8 29-362, biotin (on the Avitag))
Assay: BLI

Binder	Kd
B1	127 nM
B2	179 nM
